# Results published in paper PMC12853789, “Identification of receptor-binding domains of Bacteroidales antibacterial pore-forming toxins” (The Journal of Biological Chemistry, 2025).
# Target: T1, BSAP-1 (BF638R_1646), recombinant soluble protein with N-terminal His tag (Bacteroides fragilis 638R, UniProt E1WTV1 17-372)
# T1 construct: BSAP-1 of Bacteroides fragilis 638R (BF638R_1646, GenBank CBW22174.1), without the N-terminal signal peptide and the lipidated cysteine (C16); the protein ends at P372; a Ser-Ser-Gly linker follows the His tag; Limits follow from 'excluding the signal peptide and conserved cysteine' (C16) and the CTD's end at P372; no cleavage of the tag is told; also called full-length BSAP-1; purified BSAP-1; …
# T1 sequence: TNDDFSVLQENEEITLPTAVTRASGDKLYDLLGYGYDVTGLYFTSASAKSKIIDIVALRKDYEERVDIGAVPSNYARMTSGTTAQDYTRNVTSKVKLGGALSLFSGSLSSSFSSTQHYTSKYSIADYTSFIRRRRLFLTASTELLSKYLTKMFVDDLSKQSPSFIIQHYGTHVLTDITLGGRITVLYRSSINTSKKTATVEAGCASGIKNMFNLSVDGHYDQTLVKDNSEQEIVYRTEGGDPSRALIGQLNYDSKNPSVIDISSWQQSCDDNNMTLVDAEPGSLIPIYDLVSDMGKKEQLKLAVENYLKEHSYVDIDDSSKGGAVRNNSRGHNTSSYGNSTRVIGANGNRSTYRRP
# Assay: cryo-EM structure; peak 1 fractions of the BSAP-1 pull-down, in DDM, graphene oxide coated grids; map of the complex ~7 Å, local refinement on B1R^S 4.45 Å
# Conditions: one partner purified
binder,measurement,value
"B1R^S, BSAP-1 receptor (BF9343_1563), untagged, overexpressed in Bacteroides thetaiotaomicron (receptor, Bacteroides fragilis NCTC 9343, UniProt Q5LEV6 1-556, looked up, B1R^S, outer membrane beta-barrel protein of Bacteroides fragilis NCTC 9343 (BF9343_1563, GenBank CAH07344.1); theoretical molecular weight 62 kDa; untagged; in the pull-down it stood in a membrane fraction, in microscopy on cells) QTVYDAAKITGKDLNGTARFVGMGGAMGALGGDISTIGTNPAGIGIYRSNDFMTSFGFSSYGTESKYLGDKFKSDKIQGSFDNLGFVFASKIGNETSLRYVNFGFNYHKAKSFYKNMNMKGGLGNSSQTYQMAQQASGITKWGDYPYDDPEIGWLSILGYDGWLISDITTDKMNAAGKPNSPYVDKDGNQRYDANGKPLYTTPGNYYGMYDDGVANFHSQERGGIDQYDFNVAFNFNDRFYLGLTLGAYAVDYSKYTYYSEAYTGANAPQNYNLRSWNKVRGSGFDLKLGTIIRPFENSPFRIGLAIHTPTFYNLDYKTSARVESDVLNVETGKIDQWSVDTRDKLPGNGDMVREFRLQTPWTYNVSLGYTIGTSLALGAEYEYQDYSTMKFRGPTGSSSEFTFENSTRPMMKGVNTLRLGLEYKVIPQFALRAGYNYTSAIFHGDAFKDLPYYSIQTDTDWANTKALSNYTLGIGYRGSVFYADLAYKFSTYNEDFYPFVNKYEENNATTVLTPETTKVTNTRSQVLFTLGLRF",stoichiometry N,1
